Our source for the Kd values is article PMC4351158 (Structure (London, England : 1993), 2015).

A word on the Kd: it is the free concentration of one partner at which half of the binding sites on the other are occupied at equilibrium, for simple one-to-one binding. The low end stands for tighter binding, the high end for weaker binding.

What all share (assay): fluorescence polarisation
(In general: Fluorescence polarisation rises when a labelled molecule tumbles more slowly, as on binding a larger partner.)

For one test, the target named is T1, DegS H198P/P229A (E. coli, UniProt P0AEE3 27-355, H198P | P229A).
T1 sequence (looked up): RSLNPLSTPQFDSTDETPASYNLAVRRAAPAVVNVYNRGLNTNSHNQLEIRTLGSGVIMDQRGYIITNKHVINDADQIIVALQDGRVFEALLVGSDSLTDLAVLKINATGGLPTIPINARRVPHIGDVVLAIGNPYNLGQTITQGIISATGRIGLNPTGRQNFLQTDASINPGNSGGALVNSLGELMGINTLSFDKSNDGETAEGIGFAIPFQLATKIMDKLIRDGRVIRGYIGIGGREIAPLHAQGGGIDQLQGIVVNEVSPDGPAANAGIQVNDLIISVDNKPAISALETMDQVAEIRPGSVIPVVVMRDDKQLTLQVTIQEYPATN

The target of the next test is T2, DegS L164A/H198P (E. coli, UniProt P0AEE3 27-355, L164A | H198P).
T2 sequence (looked up): T1 sequence (looked up) with L138A, A203P

For another test, the target named is T3, DegS R178A/H198P (E. coli, UniProt P0AEE3 27-355, R178A | H198P).
T3 sequence (looked up): T1 sequence (looked up) with R152A, A203P

The target in a further test is T4, DegS P161A/H198P (E. coli, UniProt P0AEE3 27-355, P161A | H198P).
T4 sequence (looked up): T1 sequence (looked up) with P135A, A203P

The next test has as its target T5, DegS Q187A/H198P (E. coli, UniProt P0AEE3 27-355, Q187A | H198P).
T5 sequence (looked up): T1 sequence (looked up) with Q161A, A203P

Where a chain is given by its changes, count along the chain named. Where no end group is shown, it is not given here. fluorescein = fluorescein, a fluorescent label on the peptide N-terminus

B1: fluorescent OMP peptide fluorescein-DNRDGNVYYF (peptide)
peptide: fluorescein-DNRDGNVYYF
Turning to B1, the Kd with DegS H198P/P229A is 2 ± 0.1 µM; with DegS L164A/H198P, 2.5 ± 0.5 µM; with DegS R178A/H198P, 4 ± 0.1 µM; with DegS P161A/H198P, 2.5 ± 0.4 µM; with DegS Q187A/H198P it was 1.5 ± 0.1 µM.
